Data: IntAct's records for PubMed 27013965

Molecular target: lrp6_human LRP6 (UniProt O75581)
Chain of UniProt O75581 (O75581 whole entry): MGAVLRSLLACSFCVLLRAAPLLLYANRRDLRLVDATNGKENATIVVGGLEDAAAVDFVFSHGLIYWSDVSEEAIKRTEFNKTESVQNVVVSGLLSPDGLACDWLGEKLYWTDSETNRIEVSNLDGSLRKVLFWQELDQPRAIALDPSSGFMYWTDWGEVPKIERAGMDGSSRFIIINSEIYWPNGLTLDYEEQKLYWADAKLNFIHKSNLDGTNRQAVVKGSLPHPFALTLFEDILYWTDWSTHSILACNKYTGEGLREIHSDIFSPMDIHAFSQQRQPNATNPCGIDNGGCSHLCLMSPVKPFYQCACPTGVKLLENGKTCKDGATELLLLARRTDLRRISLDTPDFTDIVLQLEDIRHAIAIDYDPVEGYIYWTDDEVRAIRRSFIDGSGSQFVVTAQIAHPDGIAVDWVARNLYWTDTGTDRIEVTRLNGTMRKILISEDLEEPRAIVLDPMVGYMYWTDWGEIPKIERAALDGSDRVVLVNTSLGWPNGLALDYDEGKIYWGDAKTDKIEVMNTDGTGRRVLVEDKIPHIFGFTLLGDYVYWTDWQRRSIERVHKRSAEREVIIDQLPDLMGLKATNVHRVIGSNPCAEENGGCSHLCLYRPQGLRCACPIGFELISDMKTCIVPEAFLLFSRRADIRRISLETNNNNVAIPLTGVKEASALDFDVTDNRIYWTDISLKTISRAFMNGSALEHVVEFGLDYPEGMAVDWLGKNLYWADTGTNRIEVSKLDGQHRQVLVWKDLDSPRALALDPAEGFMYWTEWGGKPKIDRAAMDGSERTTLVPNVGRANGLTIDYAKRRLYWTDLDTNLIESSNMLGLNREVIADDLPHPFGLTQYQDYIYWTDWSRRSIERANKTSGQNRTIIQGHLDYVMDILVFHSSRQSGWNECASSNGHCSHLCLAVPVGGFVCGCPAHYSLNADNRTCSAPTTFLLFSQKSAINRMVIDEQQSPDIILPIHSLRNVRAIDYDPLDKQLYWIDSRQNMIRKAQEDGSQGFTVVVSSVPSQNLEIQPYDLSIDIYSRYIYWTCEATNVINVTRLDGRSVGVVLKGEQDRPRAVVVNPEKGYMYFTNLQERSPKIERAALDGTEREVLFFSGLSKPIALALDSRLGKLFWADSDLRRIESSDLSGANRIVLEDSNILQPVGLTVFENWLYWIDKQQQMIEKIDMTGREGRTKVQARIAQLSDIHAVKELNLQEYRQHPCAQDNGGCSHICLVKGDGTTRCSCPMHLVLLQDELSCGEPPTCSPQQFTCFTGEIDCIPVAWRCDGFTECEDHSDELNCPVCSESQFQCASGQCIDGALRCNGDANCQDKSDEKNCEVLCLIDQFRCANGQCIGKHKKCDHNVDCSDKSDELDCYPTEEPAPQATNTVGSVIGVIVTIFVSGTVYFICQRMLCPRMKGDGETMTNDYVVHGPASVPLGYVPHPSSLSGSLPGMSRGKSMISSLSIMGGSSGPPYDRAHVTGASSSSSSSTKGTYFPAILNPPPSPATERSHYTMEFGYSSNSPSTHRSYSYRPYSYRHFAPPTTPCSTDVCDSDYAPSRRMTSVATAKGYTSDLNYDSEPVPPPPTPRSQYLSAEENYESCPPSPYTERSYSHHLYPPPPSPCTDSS

| Substance | effect of a mutation on the interaction |
| --- | --- |
| Leucine-rich repeat serine/threonine-protein kinase 2 (Homo sapiens), Q5S007 R1441G | decreasing interaction strength |
| Leucine-rich repeat serine/threonine-protein kinase 2 (Homo sapiens), Q5S007 R1398H | decreasing interaction strength |
